Blank lines part the entries; values can stand above or below the binder they belong to.
Columns and labels:
[1] = target: Human BTN3A, membrane displayed on cells (human PBMCs, Daudi cells, SKOV-3 cells) (human), O00481; assay: cell-based or functional assay
[2] = target: T1, Human BTN3A1 His-tagged antigen (Sino Biological Cat. No. 15973-H08H) (human, UniProt O00481 30-254); assay: SPR Biacore T200, single cycle kinetics, BTN3A1-His captured on anti-His CM5 chip, Fab as analyte, 1:1 model, 25 C
T1 construct: Bought recombinant protein; also called recombinant human BTN3A1-His; not shown: His tag
Description: All single cycle kinetic experiments were run at 25° C. with HBS-P+ running buffer (pH 7.4) containing 0.1% BSA (GE Healthcare, Little Chalfont, UK).
Human BTN3A1 His-tagged antigen (Sino Biological, Beijing, China) was diluted in running buffer to a final concentration of 0.4 μg/mL. At the start of each cycle, BTN3A1-His was captured onto Fc2 of CM5 sensor chip pre-coupled using a His capture kit (GE Healthcare, Little Chalfont, UK) with standard amine chemistry at a flow rate of 10 μL/min. An immobilization level (RL) of ˜17 RU or 8 RU, the different theoretical values to obtain a RMax of ˜25 RU was used for the analytes Fab and F(ab′)₂ respectively. The surface was then allowed to stabilize. Single cycle kinetics data was obtained with the purified samples (Fab and F(ab′)₂)) at a flow rate of 40 μL/min to minimize any potential mass transfer effects. The signal from the reference channel Fc1 (no antigen capture) was subtracted from that of Fc2 to correct for differences in non-specific binding to the reference surface. […] The signal for BTN3A1-His blank runs (no analyte) were subtracted to correct for differences in surface stability. The association phase for the five injections of increasing concentrations was monitored for 240 seconds each time and a single dissociation phase was measured for 2000 seconds following the last injection of analyte. Regeneration of the chip surface was conducted using two injections of 10 mM glycine-HCL pH 1.5 followed by a stabilization period of 240 seconds.
Raw sensorgrams were fitted with a 1:1 model for Fab samples and with a bivalent analyte model for F(ab′)₂ samples in agreement with the different valences of the analytes. Kinetic constants obtained are detailed in Table 1 and Table 2.

[3] = target: T1, Human BTN3A1 His-tagged antigen (Sino …); assay: SPR Biacore T200, single cycle kinetics, BTN3A1-His captured on anti-His CM5 chip, IgG as analyte, bivalent analyte model (kd 1), 25 C
Description: (§1) Human BTN3A1 His-tagged antigen (Sino Biological, Beijing, China) was diluted in running buffer to a final concentration of 0.4 μg/mL. At the start of each cycle, human BTN3A1-His was captured onto Fc2 of CM5 sensor chip pre-coupled using a His capture kit (GE Healthcare, Little Chalfont, UK) with standard amine chemistry at a flow rate of 10 μL/min. An immobilization level (RL) of ˜34 RU, 16 RU or 11 RU, the different theoretical values to obtain a RMax of ˜50 RU was used for the analytes Fab, F(ab′)₂ and IgG respectively. The surface was then allowed to stabilize. Single cycle kinetic data was obtained with the purified samples (Fab, F(ab′)₂ and IgG) at a flow rate of 40 μL/min to minimize any potential mass transfer effects. The signal from the reference channel Fc1 (no antigen capture) was subtracted from that of Fc2 to correct for differences in non-specific binding to the reference surface. The signal for human BTN3A1-His blank runs (no analyte) were subtracted to correct for differences in surface stability. The association phase for the five injections of increasing concentrations was monitored for 240 seconds each time and a single dissociation phase was measured for 1400 seconds following the last injection of analyte. Regeneration of the chip surface was conducted using two injections of 10 mM glycine-HCL pH 1.5 followed by a stabilization period of 240 seconds.

[4] = target: T1, Human BTN3A1 His-tagged antigen (Sino …); assay: SPR Biacore T200, single cycle kinetics, BTN3A1-His captured on anti-His CM5 chip, IgG as analyte, bivalent analyte model (ka 1), 25 C
Description: as §1

[5] = target: T1, Human BTN3A1 His-tagged antigen (Sino …); assay: SPR Biacore T200, single cycle kinetics, BTN3A1-His captured on anti-His CM5 chip, IgG as analyte, bivalent analyte model (kd 2), 25 C
Description: as §1

[6] = target: T1, Human BTN3A1 His-tagged antigen (Sino …); assay: BLI OctetRed96, antibody loaded on FAB2G (anti-human CH1) sensors, human BTN3A1 as analyte 1.87-60 nM, 1:1 model, 30 C
Description: (§2) All runs (including loading, equilibration, association/dipping of sensors into analyte, dissociation and regeneration) were performed in black 96-well plates (Greiner) at 30° C. with shaking 1000 rpm using an OctetRed96 (ForteBio). […] The association of antibody or fragments with various concentrations of human BTN3A1 (60, 30, 15, 7.5, 3.75 and 1.87 nM) was monitored for 300 s, and the dissociation was followed for typically 500 s in kinetic buffer. Fitting of the data and constant measurements were performed with the Octet Red system software (version 7.1) using the 1:1 model. A control with an irrelevant antibody was used in order to assess the absence of non-specific binding of the target protein.

[7] = target: T1, Human BTN3A1 His-tagged antigen (Sino …); assay: SPR Biacore T200, single cycle kinetics, BTN3A1-His captured on anti-His CM5 chip, IgG as analyte, bivalent analyte model (ka 2), 25 C
Description: as §1

[8] = target: T1, Human BTN3A1 His-tagged antigen (Sino …); assay: competition ELISA on coated BTN3A1-His, competitor murine 103.2
Description: Chimeric (VH0/Vκ0) and irrelevant human IgG4 (S241P, L248E) were tested on each plate for comparison.
BTN3A1 was diluted in 1×PBS to 0.5 μg/ml and 100 μL/well was coated overnight at 4° C. on a 96-well ELISA plate. The following day, the plate was washed 3× with 1×PBS/0.05% Tween (PBS-T) and blocked with 200 μL of 2% milk/PBS for 1 hour at room temperature. […] After washing the Nunc ELISA plate 3× with PBS-T, 100 μL of murine/test antibody mix was added to the ELISA plate. After one hour incubation at room temperature, the plate was washed 3 times with PBS-T and 100 μL of anti-mouse Fc HRP-labelled secondary antibody (Sigma, Dorset, UK) diluted 1:1000 in blocking buffer was applied for 1 hour at room temperature to detect bound murine antibody. The plate was washed 3 times with PBS-T following which 100 μL of TMB substrate was added and incubated for five minutes at room temperature. The reaction was stopped with 100 μl of 3.0 M hydrochloric acid and absorbance was read immediately using a Dynex plate reader at 450 nm.

[9] = target: T1, Human BTN3A1 His-tagged antigen (Sino …); assay: SPR Biacore T200, multi-cycle kinetics, antibody captured on Protein A, BTN3A1-His as analyte, 1:1 model
Description: Purified antibodies were diluted to a concentration of 2 μg/mL in 2% BSA/PBS. At the start of each cycle, each antibody was captured on the Protein A at a density (RL) of 146.5 RU (theoretical value to obtain an RMax of ˜50 RU). Following capture, the surface was allowed to stabilize before injection of the BTN3A1 antigen (Sino Biological cat. no. 15973-H08H). BTN3A1 was titrated in 0.1% BSA/HBS-P+(running buffer) in a two-fold dilution range from 12 to 0.375 nM. The association phase was monitored for 360 seconds and the dissociation phase for 45 minutes (2700 seconds). Kinetic data was obtained using a flow rate of 40 μL/min to minimize any potential mass transfer effects. Regeneration of the Protein A surface was conducted using two injections of 10 mM glycine-HCL pH 1.5 at the end of each cycle. Two blanks (no BTN3A1) and a repeat of a single concentration of the analyte were performed for each tested antibody to check the stability of the surface and analyte over the kinetic cycles. The chimeric antibody was run twice. The signal from the reference channel Fc1 was subtracted from that of Fc2, Fc3 and Fc4 to correct for differences in non-specific binding to a reference surface. Additionally, blank runs were subtracted for each Fc to correct any antigen-independent signal variation, such as drift. […]

[10] = target: T1, Human BTN3A1 His-tagged antigen (Sino …); assay: BLI OctetRed96, Fab loaded on FAB2G (anti-human CH1) sensors, human BTN3A1 as analyte 1.87-60 nM, 1:1 model, 30 C
Description: as §2

[11] = target: T1, Human BTN3A1 His-tagged antigen (Sino …); assay: SPR Biacore T200, single cycle kinetics, BTN3A1-His captured on anti-His CM5 chip, Fab as analyte, 1:1 model, 25 C; remark: listed apart in the source
Description: as §1

T1 sequence (O00481 30-254 limits assumed): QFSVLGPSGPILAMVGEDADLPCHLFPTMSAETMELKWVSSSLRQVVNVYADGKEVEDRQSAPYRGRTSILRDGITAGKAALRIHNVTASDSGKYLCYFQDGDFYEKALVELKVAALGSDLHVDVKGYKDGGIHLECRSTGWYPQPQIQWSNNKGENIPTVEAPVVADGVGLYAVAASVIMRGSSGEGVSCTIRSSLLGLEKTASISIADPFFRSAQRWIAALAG

% CD107+ of Vγ9Vδ2 T cells, co-culture with Daudi cells, antibody at 10 µg/mL [1]: 6.96%
B1: Chimeric 103.2 antibody (VH0/Vκ0), full-length IgG (antibody, V domains shown)
VH: QVQMQQSGAEVVRPGTSVKVSCKASGYAFTSYLIHWIKQRPGQGLEWIGVINPRSGDSHYNEKFKDRTTLTADQSSSTAYMQLSSLTSDDSAVYFCARSDYGAYWGQGTLVTVSS
VL: DIVLTQSPVTLSVTPGDSVSLSCRASQSISNNLHWYRQKSHESPRLLIKYASQSIFGIPSRFSGSGSGTEFTLSINSVETEDFGIYFCQQSNSWPHTFGTGTKLELK

% CD107+ of Vγ9Vδ2 T cells, co-culture with Daudi cells, fragment at 10 µg/mL [1]: 66.7%
Kd [2]: 1.42 nM
koff [2]: 0.000782 s⁻¹
kon [2]: 551000 M⁻¹ s⁻¹
B2: Chimeric 103.2 Fab fragment (Fab, V domains shown)
VH: QVQMQQSGAEVVRPGTSVKVSCKASGYAFTSYLIHWIKQRPGQGLEWIGVINPRSGDSHYNEKFKDRTTLTADQSSSTAYMQLSSLTSDDSAVYFCARSDYGAYWGQGTLVTVSS
VL: DIVLTQSPVTLSVTPGDSVSLSCRASQSISNNLHWYRQKSHESPRLLIKYASQSIFGIPSRFSGSGSGTEFTLSINSVETEDFGIYFCQQSNSWPHTFGTGTKLELK

% CD25+ of Vγ9Vδ2 T cells within PBMCs, 67 nM, 5 days [1]: 7.9%
% CTV dilution of Vγ9Vδ2 T cells within PBMCs, 67 nM, 5 days [1]: 9.5%
koff [3]: 0.000352 s⁻¹
kon [4]: 430000 M⁻¹ s⁻¹
kd 2 [5]: 17.6 s⁻¹
Kd [6]: 1.44 nM
koff [6]: 0.00028 s⁻¹
kon [6]: 194000 M⁻¹ s⁻¹
ka 2 [7]: 9.28 M⁻¹ s⁻¹
B3: Humanized 103.2 (hu103.2) full-length antibody: 103.2 VH4/Vκ4 IgG1 L247F L248E P350S dK (antibody, V domains shown)
VH: QVQMQQSGAEVKKPGASVKVSCKASGYAFTSYLIHWIKQRPGQGLEWIGVINPRSGDSHYNEKFKDRVTMTADQSISTAYMELSRLRSDDTAVYYCARSDYGAYWGQGTLVTVSS
VL: EIVLTQSPATLSVSPGERATLSCRASQSISNNLHWYQQKPGQAPRLLIKYASQSAFGIPARFSGSGSGTEFTLTISSLQSEDFAVYFCQQSNSWPHTFGQGTKLEIK
notes: also called hu103.2 (IgG)

IC50 relative to chimeric [8]: ≤ 2 fold of chimeric (VH0/Vκ0)
affinity (KD) relative to chimeric [9]: ≤ 2 fold of 103.2 chimeric (VH0/Vκ0)
B4: 103.2 humanized variant VH4/Vκ4 (IgG4 format of the humanization screen) (antibody, V domains shown)
VH: QVQMQQSGAEVKKPGASVKVSCKASGYAFTSYLIHWIKQRPGQGLEWIGVINPRSGDSHYNEKFKDRVTMTADQSISTAYMELSRLRSDDTAVYYCARSDYGAYWGQGTLVTVSS
VL: EIVLTQSPATLSVSPGERATLSCRASQSISNNLHWYQQKPGQAPRLLIKYASQSAFGIPARFSGSGSGTEFTLTISSLQSEDFAVYFCQQSNSWPHTFGQGTKLEIK
notes: It has the same variable regions as hu103.2, which is the later IgG1 Fc-silent construct

% CD25+ of Vγ9Vδ2 T cells within PBMCs, 67 nM, 5 days [1]: 32.7%
% CTV dilution of Vγ9Vδ2 T cells within PBMCs, 67 nM, 5 days [1]: 45.3%
EC50 (nM) in Vγ9Vδ2 T cell degranulation assay (CD107) against Daudi [1]: 0.91 nM
EC50 (nM) in Vγ9Vδ2 T cell degranulation assay (CD107) against SKOV-3 [1]: 0.08 nM
Kd [10]: 2.43 nM
koff [10]: 0.000419 s⁻¹
kon [10]: 172000 M⁻¹ s⁻¹
Kd [11]: 1.26 nM
koff [11]: 0.00138 s⁻¹
kon [11]: 1.1e+06 M⁻¹ s⁻¹
B5: Humanized 103.2 (hu103.2) Fab fragment (Fab, V domains shown)
VH: QVQMQQSGAEVKKPGASVKVSCKASGYAFTSYLIHWIKQRPGQGLEWIGVINPRSGDSHYNEKFKDRVTMTADQSISTAYMELSRLRSDDTAVYYCARSDYGAYWGQGTLVTVSS
VL: EIVLTQSPATLSVSPGERATLSCRASQSISNNLHWYQQKPGQAPRLLIKYASQSAFGIPARFSGSGSGTEFTLTISSLQSEDFAVYFCQQSNSWPHTFGQGTKLEIK
